PMC5758567

Biological target: Rod photoreceptor cGMP phosphodiesterase 6 (PDE6) (bovine (endogenous in rod outer segments)) (UniProt P11541)

Chain of Prenyl-binding protein (PrBP/δ) (Q95142 whole entry, stated change not applied): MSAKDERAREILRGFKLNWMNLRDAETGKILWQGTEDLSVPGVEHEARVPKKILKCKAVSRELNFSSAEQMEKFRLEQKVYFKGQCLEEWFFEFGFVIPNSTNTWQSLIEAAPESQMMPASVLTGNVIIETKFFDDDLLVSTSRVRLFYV

- Gα*-induced PDE6 activity (50 nM PDE6, 10 µM disc membranes, 1 µM Gα*) against PrBP/δ concentration; fit with two identical PrBP/δ binding sites on soluble PDE6: 0.07 µM
Substance: Prenyl-binding protein (PrBP/δ) (from UniProt Q95142 1-150) (natural protein)
